# Reference: patent US20020035733A1 (AREXIS, published 2002)
# Biological target: insulin (125I-insulin mixed with unlabeled insulin)
# Assay: cell-based or functional assay
row,"insulin degrading activity in intact COS-1 cells, percentage of wild type activity",Binder
1,95 % of wild type activity,rat insulin degradation enzyme (IDE) variant A890V (valine for alanine at amino acid 890) (enzyme) MRNGLVWLLHPALPSTLHSILGARPPPVKRLCGFPKQIYSTMNNPAIQRIEDHIVKSPEDKREYRGLELANGIKVLLISDPTTDKSSAALDVHIGSLSDPPNIPGLSHFCEHMLFLGTKKYPKENEYSQFLSEHAGSSNAFTSGEHTNYYFDVSHEHLEGALDRFAQFFLCPLFDASCKDREVNAVDSEHEKNVMNDAWRLFQLEKATGNPKHPFSKFGTGNKYTLETRPNQEGIDVREELLKFHSTYYSSNLMAICVLGRESLDDLTNLVVKLFSEVENKNVPLPEFPEHPFQEEHLKQLYKIVPIKDIRNLYVTFPIPDLQQYYKSNPGHYLGHLIGHEGPGSLLSELKSKGWVNTLVGGQKEGARGFMFFIINVDLTEEGLLHVEDIILHMFQYIQKLRAEGPQEWVFQECKDLNAVAFRFKDKERPRGYTSKIAGKLHYYPLNGVLTAEYLLEEFRPDLIDMVLDKLRPENVRVAIVSKSFEGKTDRTEQWYGTQYKQEAIPEDVIQKWQNADLNGKFKLPTKNEFIPTNFEILALEKDATPYPALIKDTAMSKLWFKQDDKFFLPKACLNFEFFSPFAYVDPLHCNMAYLYLELLKDSLNEYAYAAELAGLSYDLQNTIYGMYLSVKGYNDKQPILLKKITEKMATFEIDKKRFEIIKEAYMRSLNNFRAEQPHQHAMYYLRLLMTEVAWTKDELKEALDDVTLPRLKAFIPQLLSRLHIEALLHGNITKQAALGVMQMVEDTLIEHAHTKPLLPSQLVRYREVQLPDRGWFVYQRRNEVHNNCGIEIYYQTDMQSTSENMFLELFCQIISEPCFNTLRTKEQLGYIVFSGPRRANGIQGLRFIIQSEKPPHYLESRVEAFLITMEKAIEDMTEEAFQKHIQALVIRRLDKPKKLSAECAKYWGEIISQQYNYDRDNIEVAYLKTLSKDDIIKFYKEMLAVDAPRRHKVSVHVLAREMDSCPVVGEFPSQNDINLSEAPPLPQPEVIHNMTEFKRGLPLFPLVKPHINFMAAKL
2,69 % of wild type activity,"rat insulin degradation enzyme (IDE), GK allele containing both H18R and A890V (enzyme) MRNGLVWLLHPALPSTLRSILGARPPPVKRLCGFPKQIYSTMNNPAIQRIEDHIVKSPEDKREYRGLELANGIKVLLISDPTTDKSSAALDVHIGSLSDPPNIPGLSHFCEHMLFLGTKKYPKENEYSQFLSEHAGSSNAFTSGEHTNYYFDVSHEHLEGALDRFAQFFLCPLFDASCKDREVNAVDSEHEKNVMNDAWRLFQLEKATGNPKHPFSKFGTGNKYTLETRPNQEGIDVREELLKFHSTYYSSNLMAICVLGRESLDDLTNLVVKLFSEVENKNVPLPEFPEHPFQEEHLKQLYKIVPIKDIRNLYVTFPIPDLQQYYKSNPGHYLGHLIGHEGPGSLLSELKSKGWVNTLVGGQKEGARGFMFFIINVDLTEEGLLHVEDIILHMFQYIQKLRAEGPQEWVFQECKDLNAVAFRFKDKERPRGYTSKIAGKLHYYPLNGVLTAEYLLEEFRPDLIDMVLDKLRPENVRVAIVSKSFEGKTDRTEQWYGTQYKQEAIPEDVIQKWQNADLNGKFKLPTKNEFIPTNFEILALEKDATPYPALIKDTAMSKLWFKQDDKFFLPKACLNFEFFSPFAYVDPLHCNMAYLYLELLKDSLNEYAYAAELAGLSYDLQNTIYGMYLSVKGYNDKQPILLKKITEKMATFEIDKKRFEIIKEAYMRSLNNFRAEQPHQHAMYYLRLLMTEVAWTKDELKEALDDVTLPRLKAFIPQLLSRLHIEALLHGNITKQAALGVMQMVEDTLIEHAHTKPLLPSQLVRYREVQLPDRGWFVYQRRNEVHNNCGIEIYYQTDMQSTSENMFLELFCQIISEPCFNTLRTKEQLGYIVFSGPRRANGIQGLRFIIQSEKPPHYLESRVEAFLITMEKAIEDMTEEAFQKHIQALVIRRLDKPKKLSAECAKYWGEIISQQYNYDRDNIEVAYLKTLSKDDIIKFYKEMLAVDAPRRHKVSVHVLAREMDSCPVVGEFPSQNDINLSEAPPLPQPEVIHNMTEFKRGLPLFPLVKPHINFMAAKL"
3,89 % of wild type activity,rat insulin degradation enzyme (IDE) variant H18R (arginine for histidine at amino acid 18) (enzyme) MRNGLVWLLHPALPSTLRSILGARPPPVKRLCGFPKQIYSTMNNPAIQRIEDHIVKSPEDKREYRGLELANGIKVLLISDPTTDKSSAALDVHIGSLSDPPNIPGLSHFCEHMLFLGTKKYPKENEYSQFLSEHAGSSNAFTSGEHTNYYFDVSHEHLEGALDRFAQFFLCPLFDASCKDREVNAVDSEHEKNVMNDAWRLFQLEKATGNPKHPFSKFGTGNKYTLETRPNQEGIDVREELLKFHSTYYSSNLMAICVLGRESLDDLTNLVVKLFSEVENKNVPLPEFPEHPFQEEHLKQLYKIVPIKDIRNLYVTFPIPDLQQYYKSNPGHYLGHLIGHEGPGSLLSELKSKGWVNTLVGGQKEGARGFMFFIINVDLTEEGLLHVEDIILHMFQYIQKLRAEGPQEWVFQECKDLNAVAFRFKDKERPRGYTSKIAGKLHYYPLNGVLTAEYLLEEFRPDLIDMVLDKLRPENVRVAIVSKSFEGKTDRTEQWYGTQYKQEAIPEDVIQKWQNADLNGKFKLPTKNEFIPTNFEILALEKDATPYPALIKDTAMSKLWFKQDDKFFLPKACLNFEFFSPFAYVDPLHCNMAYLYLELLKDSLNEYAYAAELAGLSYDLQNTIYGMYLSVKGYNDKQPILLKKITEKMATFEIDKKRFEIIKEAYMRSLNNFRAEQPHQHAMYYLRLLMTEVAWTKDELKEALDDVTLPRLKAFIPQLLSRLHIEALLHGNITKQAALGVMQMVEDTLIEHAHTKPLLPSQLVRYREVQLPDRGWFVYQRRNEVHNNCGIEIYYQTDMQSTSENMFLELFCQIISEPCFNTLRTKEQLGYIVFSGPRRANGIQGLRFIIQSEKPPHYLESRVEAFLITMEKAIEDMTEEAFQKHIQALAIRRLDKPKKLSAECAKYWGEIISQQYNYDRDNIEVAYLKTLSKDDIIKFYKEMLAVDAPRRHKVSVHVLAREMDSCPVVGEFPSQNDINLSEAPPLPQPEVIHNMTEFKRGLPLFPLVKPHINFMAAKL
